Reference: patent US9938354B2, “Lin28-mediated control of let-7 biogenesis” (Children's Medical Center Corporation, priority 2011, dated 2018)

How the values were obtained:
TUTase = molecular target: T1, TUTase (Homo sapiens, UniProt Q5TAX3); experiment: In vitro TUTase activity (uridylation) assay; assay type: biochemical; conditions: chain terminator; prevents oligo-U tail elongation
T1 construct: Flag; made in house; host or cells: HEK293 / HEK293T cells (transient transfection, anti-Flag M2 purification)
T1 sequence (Q5TAX3 whole entry): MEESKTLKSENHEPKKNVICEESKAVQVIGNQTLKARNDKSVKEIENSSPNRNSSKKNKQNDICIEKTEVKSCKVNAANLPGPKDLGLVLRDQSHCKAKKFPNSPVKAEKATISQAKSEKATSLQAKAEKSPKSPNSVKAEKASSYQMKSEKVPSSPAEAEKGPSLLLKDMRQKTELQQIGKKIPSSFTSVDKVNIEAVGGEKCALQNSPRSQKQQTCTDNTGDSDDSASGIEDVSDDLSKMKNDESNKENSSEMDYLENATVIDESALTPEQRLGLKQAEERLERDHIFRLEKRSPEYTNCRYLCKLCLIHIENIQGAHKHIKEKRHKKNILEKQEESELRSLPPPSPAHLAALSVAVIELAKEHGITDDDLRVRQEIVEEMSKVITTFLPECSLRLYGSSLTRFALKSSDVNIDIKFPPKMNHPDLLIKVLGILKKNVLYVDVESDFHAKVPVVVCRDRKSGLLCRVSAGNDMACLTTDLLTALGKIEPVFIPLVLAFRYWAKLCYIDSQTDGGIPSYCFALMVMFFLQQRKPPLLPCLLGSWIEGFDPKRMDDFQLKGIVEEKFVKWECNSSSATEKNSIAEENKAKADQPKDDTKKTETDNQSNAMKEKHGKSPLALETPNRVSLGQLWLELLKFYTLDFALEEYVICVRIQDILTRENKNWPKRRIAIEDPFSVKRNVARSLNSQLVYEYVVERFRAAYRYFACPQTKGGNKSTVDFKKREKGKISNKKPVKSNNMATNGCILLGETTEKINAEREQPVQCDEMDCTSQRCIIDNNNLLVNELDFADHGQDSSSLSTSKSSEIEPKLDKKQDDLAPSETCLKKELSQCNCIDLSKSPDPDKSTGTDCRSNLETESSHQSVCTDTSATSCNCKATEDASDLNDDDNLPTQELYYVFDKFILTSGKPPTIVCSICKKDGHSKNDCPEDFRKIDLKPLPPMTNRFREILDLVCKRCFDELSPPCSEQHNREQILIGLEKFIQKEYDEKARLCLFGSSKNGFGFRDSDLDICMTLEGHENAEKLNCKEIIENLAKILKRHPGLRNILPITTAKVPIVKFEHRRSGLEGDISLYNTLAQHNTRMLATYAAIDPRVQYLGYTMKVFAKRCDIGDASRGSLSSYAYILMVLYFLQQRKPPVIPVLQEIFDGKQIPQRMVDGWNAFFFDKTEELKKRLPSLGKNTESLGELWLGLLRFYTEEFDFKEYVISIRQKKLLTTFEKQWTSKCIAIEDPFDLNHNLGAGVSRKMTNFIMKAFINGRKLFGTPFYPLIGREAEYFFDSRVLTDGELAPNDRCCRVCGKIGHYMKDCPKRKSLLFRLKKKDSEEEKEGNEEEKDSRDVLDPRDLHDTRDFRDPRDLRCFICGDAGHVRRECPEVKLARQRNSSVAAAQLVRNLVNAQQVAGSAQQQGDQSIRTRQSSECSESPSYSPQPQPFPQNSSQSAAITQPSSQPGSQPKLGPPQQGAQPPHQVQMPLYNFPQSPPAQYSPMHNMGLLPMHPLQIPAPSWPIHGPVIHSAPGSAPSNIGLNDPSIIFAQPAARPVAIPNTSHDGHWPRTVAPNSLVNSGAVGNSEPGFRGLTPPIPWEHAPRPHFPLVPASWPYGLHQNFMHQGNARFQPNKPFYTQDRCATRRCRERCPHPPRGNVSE
Experimental: In vitro TUTase assays can be employed also. Some of the hit compounds may influence Lin28A-TUTase activity independent of altered expression levels. […] For in vitro uridylation assays, synthetic pre-let-7 RNA is incubated with the affinity-purified proteins in the presence of [α-^32P]-UTP.
A pilot screen is performed on the in vitro assay, using a chemical library that contains a collection of nucleotide analogs. The catalytic activity of the TUTase is inhibited by certain nucleotide analogs, and that the identification of these compounds through HTS will lead to their utility as a novel chemotherapeutic in Lin28A-expressing cancers. There are readily available libraries of such compounds; similar compounds have already been applied in the clinic. […] Then, putative hits from this primary screen are evaluated through secondary screens that include dose curves, in vitro TUTase activity assays, and analyses of let-7 expression by q.RT-PCR on compound-treated cells. […]
Purified proteins were incubated with 4 pmol of unlabelled synthetic RNA (Dharmacon) for 1 hour at 37° C. in a 30 μl reaction mixture containing 100 mM KCl, 20 mM Tris-HCl pH 7.6, 10% Glycerol, 125 nM [α-^32P]UTP, 3.2 mM MgCl2, 40 U RNasin ribonuclease inhibitor (Promega). Products were resolved on 15% denaturing polyacrylamide gels and bands were detected by autoradiography.

pre-let-7g = experiment: EMSA of recombinant Lin28A and Lin28B with pre-let-7g; assay type: binding; conditions: 0.5 nM 5′-end labeled pre-let-7g, without competitor yeast tRNA, estimated, read-out: apparent Kd
Experimental: (§1) Furthermore, Lin28B directly binds and sequesters pri-let-7. To further dissect the mechanism of the Lin28B-mediated let-7 processing block, the relative abilities of recombinant human Lin28A and Lin28B proteins to bind pre-let-7 were compared. (FIG. 7A, 7B and FIG. 8). EMSA was performed with pre-let-7g to analyze the relative binding affinities of the two recombinant proteins. Lin28A and Lin28B have apparent Kds of approximately 0.6 nM and 0.5 nM, respectively (FIG. 7B). Both these estimated Kds are much lower than a previously reported for recombinant mouse Lin28A. This difference is likely due to the omission here of nonspecific yeast tRNA competitor used previously in the binding buffer. Piskounova et al., 2008. […] Collectively, these assays reveal that both Lin28 proteins can directly bind to let-7 precursors with high-affinity in vitro.
(§2) Transformed BL21-CodonPlus® Competent bacteria (Stratagene) were grown to an OD600 nm of 0.4-0.6. […] Band intensities of scanned gels were quantified using ImageJ software and used to calculate percentage of probe bound. […] […] Percent active protein was determined using stoichiometric binding reactions as described in Ryder et al. (2008) Hills equation for specific binding with one site, Y=Bmax*X^h= […]

pri-let-7g = experiment: EMSA of recombinant Lin28A and Lin28B with pri-let-7g; assay type: binding; conditions: in vitro transcribed uniformly labeled pri-let-7g
Experimental: as §1, §2

Kd (pre-let-7g) | Molecule | TUTase activity in vitro (TUTase) | binding to pri-let-7g (pri-let-7g)
– | O=c1ccn([C@H]2CC[C@@H](COP(=O)(O)OP(=O)(O)OP(=O)(O)O)O2)c(=O)[nH]1 [2′,3′-dideoxy-UTP] | effectively inhibits TUTase activity in vitro | –
~0.5 nM | Lin28B: purified recombinant human His-tagged Lin28B RNA-binding protein (protein, left off: small tags and cut ends) MAEGGASKGGGEEPGKLPEPAEEESQVLRGTGHCKWFNVRMGFGFISMINREGSPLDIPVDVFVHQSKLFMEGFRSLKEGEPVEFTFKKSSKGLESIRVTGPGGSPCLGSERRPKGKTLQKRKPKGDRCYNCGGLDHHAKECSLPPQPKKCHYCQSIMHMVANCPHKNVAQPPASSQGRQEAESQPCTSTLPREVGGGHGCTSPPFPQEARAEISERSGRSPQEASSTKSSIAPEEQSKKGPSVQKRKKT | – | able to bind pri-let-7g with similar affinities
~0.6 nM | Lin28A: purified recombinant human His-tagged Lin28A RNA-binding protein (protein, UniProt Q9H9Z2 2-209, looked up, His tag) Protein lin-28 homolog A: GSVSNQQFAGGCAKAAEEAPEEAPEDAARAADEPQLLHGAGICKWFNVRMGFGFLSMTARAGVALDPPVDVFVHQSKLHMEGFRSLKEGEAVEFTFKKSAKGLESIRVTGPGGVFCIGSERRPKGKSMQKRRSKGDRCYNCGGLDHHAKECKLPPQPKKCHFCQSISHMVASCPLKAQQGPSAQGKPTYFREEEEEIHSPTLLPEAQN | – | able to bind pri-let-7g with similar affinities
